Our source for the other values is paper PMC2596940.

Read-outs that look alike come from different tables or passages of the source.

In the case of amyloid precursor protein (APP): K587R, the other entry (SUMOylation at K587) was “increases”.
For the substance amyloid precursor protein (APP): K595R, under “SUMOylation at K595”, the other entry was “increases”.
As to “amyloid precursor protein (APP): K587R/K595R”, the other entry is, setting by setting: (SUMOylation at K587) “increases”; (SUMOylation at K595) “increases”.
